Measured values as given in patent publication US20220372168A1.

Target: human FGFR1c/KLB receptor complex on cells (human) (UniProt P11362)
Assay: cell-based or functional assay

Sequence of human FGFR1c/KLB receptor complex on cells (human) (P11362 other isoform, or with tags, fused parts or gaps limits assumed, chain 1 of 2): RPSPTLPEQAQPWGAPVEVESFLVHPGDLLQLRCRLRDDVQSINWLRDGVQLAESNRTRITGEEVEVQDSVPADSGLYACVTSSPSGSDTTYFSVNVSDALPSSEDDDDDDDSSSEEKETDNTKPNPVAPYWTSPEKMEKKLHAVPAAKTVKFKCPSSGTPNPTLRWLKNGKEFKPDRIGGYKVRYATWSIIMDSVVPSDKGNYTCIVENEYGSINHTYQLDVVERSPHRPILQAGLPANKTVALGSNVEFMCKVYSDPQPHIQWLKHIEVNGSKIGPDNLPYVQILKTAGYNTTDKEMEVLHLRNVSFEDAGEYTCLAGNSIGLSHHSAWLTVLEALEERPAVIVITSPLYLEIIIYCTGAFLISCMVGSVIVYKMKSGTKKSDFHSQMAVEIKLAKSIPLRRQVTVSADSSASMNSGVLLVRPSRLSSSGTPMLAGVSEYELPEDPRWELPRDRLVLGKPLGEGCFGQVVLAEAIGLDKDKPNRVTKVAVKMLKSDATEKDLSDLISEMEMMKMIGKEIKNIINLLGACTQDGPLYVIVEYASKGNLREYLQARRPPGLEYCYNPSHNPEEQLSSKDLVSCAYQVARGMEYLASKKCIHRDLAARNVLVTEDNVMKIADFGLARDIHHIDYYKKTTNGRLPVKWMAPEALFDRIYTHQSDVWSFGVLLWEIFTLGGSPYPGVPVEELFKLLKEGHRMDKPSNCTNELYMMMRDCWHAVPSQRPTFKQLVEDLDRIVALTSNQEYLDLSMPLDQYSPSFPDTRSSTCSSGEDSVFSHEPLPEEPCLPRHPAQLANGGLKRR
Sequence of human FGFR1c/KLB receptor complex on cells (human) (chain, as listed by the source limits assumed, chain 2 of 2): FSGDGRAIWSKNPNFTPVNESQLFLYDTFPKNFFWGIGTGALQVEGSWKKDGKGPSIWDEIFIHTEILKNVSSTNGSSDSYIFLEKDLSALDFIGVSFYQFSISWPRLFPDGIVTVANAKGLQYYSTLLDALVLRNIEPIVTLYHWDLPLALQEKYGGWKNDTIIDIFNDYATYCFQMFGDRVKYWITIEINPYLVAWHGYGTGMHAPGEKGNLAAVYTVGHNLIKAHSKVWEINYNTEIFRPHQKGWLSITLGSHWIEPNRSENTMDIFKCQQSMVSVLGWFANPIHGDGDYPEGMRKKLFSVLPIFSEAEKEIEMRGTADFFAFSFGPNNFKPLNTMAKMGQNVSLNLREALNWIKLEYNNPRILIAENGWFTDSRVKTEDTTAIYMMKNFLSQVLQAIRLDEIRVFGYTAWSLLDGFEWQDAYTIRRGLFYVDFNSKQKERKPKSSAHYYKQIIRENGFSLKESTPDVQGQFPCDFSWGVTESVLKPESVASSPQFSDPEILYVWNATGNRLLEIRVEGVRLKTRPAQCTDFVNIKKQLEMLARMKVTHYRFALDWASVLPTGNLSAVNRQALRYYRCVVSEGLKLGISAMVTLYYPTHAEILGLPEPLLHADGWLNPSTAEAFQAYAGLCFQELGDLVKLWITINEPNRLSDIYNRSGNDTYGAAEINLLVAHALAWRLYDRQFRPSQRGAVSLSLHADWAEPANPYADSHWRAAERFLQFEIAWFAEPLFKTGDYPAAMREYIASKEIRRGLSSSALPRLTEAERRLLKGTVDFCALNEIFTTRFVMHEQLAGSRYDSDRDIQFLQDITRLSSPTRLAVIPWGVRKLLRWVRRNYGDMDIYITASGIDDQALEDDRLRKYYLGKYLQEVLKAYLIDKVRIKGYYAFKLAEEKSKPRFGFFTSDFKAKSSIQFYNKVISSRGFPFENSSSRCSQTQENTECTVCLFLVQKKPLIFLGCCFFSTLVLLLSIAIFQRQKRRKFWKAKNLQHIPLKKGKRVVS

% Act: 100%
EC50: 2.9 nM
Percent Activity %: 100%
Substance: REGN1438 (6His-FGF21) (from UniProt Q9NSA1 29-209) (ligand)
